Reference: US9458189B2, “Ligation of stapled polypeptides” (President and Fellows of Harvard College, priority 2008, dated 2016)
Primed or numbered codes have the meaning given here. No end group written: not given here. *: point of attachment. FITC = O=C1OC2(c3ccc(O)cc3Oc3cc(O)ccc32)c2ccc(NC(=S)*)cc21; PEG3′ = not defined here

Test: Circular dichroism of Max basic region peptides
Format: physicochemical
Settings: circular dichroism wavelength scans; 100 uM peptide in water
Description: Each of the synthesized peptides were purified by HPLC and biochemically characterized. Each peptide was diluted in water to a final concentration of 100 uM using the extinction coefficient of FITC at 495 nm in 50 mM NaH2PO4, pH 8.0. […] One peptide, i, i+4 version 1, was chosen to be synthesized so as to contain a C-terminal thioester. The peptide was synthesized using t-Boc chemistry on 3-S-trityl-mercaptopropionyl resin. The peptide was purified by HPLC and the desired product was confirmed by LC/MS analysis.

Substance: unmodified basic region peptide: unmodified DNA binding basic region of Max (RAHHNALERKRR, SEQ ID NO: 2) with N-terminal PEG-3 linker and FITC ({FITC-PEG3′}-RAHHNALERKRR)
- CD profile (secondary structure in solution): disordered in solution
